T1: synthetic peptide representing the β3 integrin cytoplasmic domain, P05106
T1 chain: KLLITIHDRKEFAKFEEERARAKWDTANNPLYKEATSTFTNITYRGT

T2: synthetic peptide representing the β1 integrin cytoplasmic domain, P05556
T2 chain: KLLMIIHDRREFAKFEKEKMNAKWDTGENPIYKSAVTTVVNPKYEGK

B1: GST-ILK^232 (GST fusion of ILK amino acid residues 132-451) (protein)
chain: YGEMPVDKAKAPLRELLRERAEKMGQNLNRIPYKDTFWKGTTRTRPRNGTLNKHSGIDFKQLNFLTKLNENHSGELWKGRWQGNDIVVKVLKVRDWSTRKSRDFNEECPRLRIFSHPNVLPVLGACQSPPAPHPTLITHWMPYGSLYNVLHEGTNFVVDQSQAVKFALDMARGMAFLHTLEPLIPRHALNSRSVMIDEDMTARISMADVKFSFQCPGRMYAPAWVAPEALQKKPEDTNRRSADMWSFAVLLWELVTREVPFADLSNMEIGMKVALEGLRPTIPPGISPHVCKLMKICMNEDPAKRPKFDMIVPILEKMQD
B2: integrin linked kinase (ILK), full length (protein)
chain: MDDIFTQCREGNAVAVRLWLDNTENDLNQGDDHGFSPLHWACREGRSAVVEMLIMRGARINVMNRGDDTPLHLAASHGHRDIVQKLLQYKADINAVNEHGNVPLHYACFWGQDQVAEDLVANGALVSICNKYGEMPVDKAKAPLRELLRERAEKMGQNLNRIPYKDTFWKGTTRTRPRNGTLNKHSGIDFKQLNFLTKLNENHSGELWKGRWQGNDIVVKVLKVRDWSTRKSRDFNEECPRLRIFSHPNVLPVLGACQSPPAPHPTLITHWMPYGSLYNVLHEGTNFVVDQSQAVKFALDMARGMAFLHTLEPLIPRHALNSRSVMIDEDMTARISMADVKFSFQCPGRMYAPAWVAPEALQKKPEDTNRRSADMWSFAVLLWELVTREVPFADLSNMEIGMKVALEGLRPTIPPGISPHVCKLMKICMNEDPAKRPKFDMIVPILEKMQDK

What was measured:
[1] = target: T1, synthetic peptide representing the β3 …
[2] = target: T2, synthetic peptide representing the β1 …

Row | Protein | phosphorylation of the synthetic peptide by recombinant kinase in vitro [1] | phosphorylation of the synthetic peptide by recombinant kinase in vitro [2] | phosphorylation of the synthetic peptide in ILK immune complex kinase assay (91-3 immunoprecipitates of PC3 lysates) [1] | autophosphorylation of ILK in immune complex kinase assay [2] | phosphorylation of the synthetic peptide in ILK immune complex kinase assay (91-3 immunoprecipitates of PC3 lysates) [2]
1 | B1 | The results demonstrating phosphorylation of synthetic β peptides by endogenous ILK are identical to those seen with recombinant GST-ILK^232 | The results demonstrating phosphorylation of synthetic β peptides by endogenous ILK are identical to those seen with recombinant GST-ILK^232 |  |  | 
2 | B2 |  |  | a similar peptide representing the β3 cytoplasmic domain was not detectably labeled by P59ILK | The β1 peptide selectively inhibited autophosphorylation of ILK in these reactions | The β1 peptide was labeled on serine and threonine residues, with approximately equal stoichiometry

Source: US20080039419
